From patent publication US20250263677A1, “BIOCATALYTIC USE OF NONHEME IRON PROTEINS FOR MOLECULAR FUNCTIONALIZATION” (The Johns Hopkins University, priority 2022, published 2025)
Changes are numbered by the printed parent chain. Names and notes keep the numbering of the source. Like-named read-outs stand apart in the source and are kept apart here.

Key:
[1] = 1NF azidation with Sav HppD variants from directed evolution (whole E. coli cells); format: biochemical; conditions: OD600=10, 10 mM 1NF, 25 mM NaN3, 2.5 mM Fe2+; for TTN (total turnover): KPi pH 7.4, anaerobic, 24 hours
Procedure: FIGS. 9A-9C is a computational model of the Sav HppD active site, a reaction scheme, and a plot of total turnovers for various Sav HppD variants. […] The computational model was generated from protein database entry 1T47. FIG. 9B provides the azidation reaction scheme for the reaction screened with a high-throughput screening platform. FIG. 9C provides representative variants identified during the directed evolution of Sav HppD. Experiments were performed at analytical scale using suspensions of E. coli expressing Sav HppD variants (OD600=10), 10 mM substrate 1NF, 25 mM NaN3, 2.5 mM Fe^2+ in KPi buffer (pH 7.4) at room temperature under anaerobic conditions for 24 hours.
In a typical experiment, ferrous ammonium sulfate (20 μL, 100 mM in water), sodium azide (20 μL, 1 M in water), and N-fluoroamide substrate (20 μL, 1.5 M in DME) were added to E. coli harboring non-heme iron enzyme variant (400 μL, adjusted to the appropriate OD600) in a 2 mL screw top GC vial in an anaerobic chamber. The vial was capped and shaken at 680 rpm at room temperature for 24 hours. At the end of the reaction, the vial was opened and the reaction was quenched with 6 mL of a hexanes/ethylacetate solution (4:6 v/v) of internal standard 1,2,3-trimethoxybenzene (0.5 mM final concentration). The reaction mixture was transferred to a 15 mL centrifuge tube, vortexed (10 seconds, 3 times), then centrifuged (10,500×g, 5 min) to completely separate the organic and aqueous layers. An aliquot (200-300 μL) of the organic layer was used for product quantification via GCMS and enantioselectivity via chiral HPLC or chiral GC. The total turnover numbers (TTNs) reported are calculated with respect to non-heme iron enzymes expressed in E. coli and represent the total number of turnovers obtained from the catalyst under the stated reaction conditions.
A high-throughput screening (HTS) platform based on copper-catalyzed azide-alkyne cycloaddition (CuAAC) was utilized for Sav HppD variants, and provided reliable quantification of enzymatic azidation products with a coefficient of variation of 9% and a detection limit of 4 μM. With this HTS platform, more than 5,000 clones generated through error-prone PCR or site-saturation mutagenesis were evaluated.

[2] = Azidation reaction condition optimization with Sav HppD Az1 and Az2 (whole E. coli cells); format: biochemical
[3] = Kinetic analyses of 1NF azidation with purified Sav HppD protein variants; format: biochemical
Procedure: Kinetic analyses for wild-type Sav HppD, Az1, and Az2 mediated 1NF azidation were performed in an anaerobic chamber. Ferrous ammonium sulfate (10 μL, 100 mM in water) and sodium azide (10 μL, 1 M in water) were added to a buffer solution containing purified Sav HppD protein variant (20 M, 2.4 mL) and the solution was shaken at 600 rpm for 5 minutes. A 1,2-dimethoxyethane solution of N-fluoroamide substrate 1NF was added to the solution (final concentration ranging from 0.25 mM to 15 mM in reaction solution). An aliquot of 100 μL of the reaction mixture was removed at 3, 6, 9, 12, and 15 minutes and quenched by vortexing with 300 μL 6:4 EtOAc/hexanes solution containing 0.5 mM (final concentration) internal standard 1,2,3-trimethoxybenzene. After centrifugation at 12,000 rpm for 10 mins, an aliquot (200 μL) of the organic layer was taken for GCMS analysis for product quantification.

[4] = Substrate scope of enzymatic azidation of N-fluoroamide substrates (whole E. coli cells); format: biochemical; conditions: across the substrates and conditions tested
Procedure: FIGS. 3A-3C is an illustration with reaction products generated from exemplary substrate compounds. […] Experiments were performed at analytical scale using suspensions of E. coli expressing Sav HppD variants in KPi buffer (pH 7.4) at room temperature under anaerobic conditions for 24 hours. The absolute configuration of enzymatically synthesized azidation product 1N was determined to be S via X-ray crystallography. The absolute configurations of all other azidation products were inferred by analogy. FIG. 3B summarizes a preparative scale synthesis and absolute configuration determination of product 1N. […]
In a typical experiment, ferrous ammonium sulfate (20 μL, 100 mM in water), sodium azide (20 μL, 1 M in water), and N-fluoroamide substrate (20 μL, 1.5 M in DME) were added to E. coli harboring non-heme iron enzyme variant (400 μL, adjusted to the appropriate OD600) in a 2 mL screw top GC vial in an anaerobic chamber. […] An aliquot (200-300 μL) of the organic layer was used for product quantification via GCMS and enantioselectivity via chiral HPLC or chiral GC. The total turnover numbers (TTNs) reported are calculated with respect to non-heme iron enzymes expressed in E. coli and represent the total number of turnovers obtained from the catalyst under the stated reaction conditions. […]

[5] = format: biochemical, E. coli
Procedure: The reactions were performed by adding ferrous ammonium sulfate (10 μL, 100 mM in water), sodium azide (10 μL, 1 M in water), and N-fluoroamide substrate 1NF (10 μL, 400 mM in DME) to E. coli harboring non-heme iron enzymes (400 μL, adjusted to OD600=40) in a 2 mL screw top GC vial. The vial was capped and shaken at 680 rpm at room temperature for 24 hours. At the end of the reaction, the vial was opened and the reaction was quenched with 0.8 mL of a hexanes/ethylacetate solution (4:6 v/v) of internal standard 1,2,3-trimethoxybenzene (0.5 mM final concentration). The reaction mixture was transferred to a 2 mL microcentrifuge tube, vortexed (10 seconds, 3 times), then centrifuged (14,000×g, 5 min) to completely separate the organic and aqueous layers. An aliquot (200-300 μL) of the organic layer was used for product quantification via GCMS and enantioselectivity via chiral HPLC or chiral GC.

[6] = 1NF (10 μL, 800 mM), OD600 = 10
[7] = 1NF (10 μL, 1.5M), Fe^2+ (20 μL, 100 mM), NaN3 (40 μL, 1M), OD600 = 10
[8] = 1NF (20 μL, 1.5M), Fe^2+ (20 μL, 100 mM), NaN3 (40 μL, 1M), OD600 = 10
[9] = 1NF (10 μL, 400 mM), Fe^2+ (10 μL, 100 mM), NaN3 (10 μL, 1M), OD600 = 10
[10] = 1NF (20 μL, 1.5M), Fe^2+ (20 μL, 100 mM), NaN3 (40 μL, 1M), OD600 = 40
[11] = whole E. coli cells OD600=40, 1NF, NaN3, Fe2+, 24 hours

B1: HppD Az1: sextuple mutant Sav HppD V189A F216A P243A N245Q Q255A L367I, SEQ ID NO: 2 (protein)
chain: MTQTTHHTPDTARQADPFPVKGMDAVVFAVGNAKQAAHYYSTAFGMQLVAYSGPENGSRETASYVLTNGSARFVLTSVIKPATPWGHFLADHVAEHGDGVVDLAIEVPDARAAHAYAIEHGARSVAEPYELKDEHGTVVLAAIATYGKTRHTLVDRTGYDGPYLPGYVAAAPIVEPPAHRTFQAIDHCAGNVELGRMNEWVGFYNKVMGFTNMKEAVGDDIATEYSALMSKVVADGTLKVKFAIQEPALAKKKSAIDEYLEFYGGAGVQHIALNTGDIVETVRTMRAAGVQFLDTPDSYYDTLGEWVGDTRVPVDTLRELKILADRDEDGYLLQIFTKPVQDRPTVFFEIIERHGSMGFGKGNFKAIFEAIEREQEKRGNL
In the case of B1, the “1N/1A (ratio of 1N to 1A among products)” value [1] is reported as 15.5, the “1N/1F (ratio of 1N to 1F among products)” value [1] is reported as 53.8 and the “TTN (total turnover)” value [1] is reported as 1340 ± 40. For the same molecule, the “TTN (total turnover)” value ([1]; listed as Sav HppD Az1) was 1340, the 1/1A [2, 6] was 18.0 and the 1/1F [2, 6] was 52.0. For the same molecule, the TTN [2, 6] was 2480 ± 30, the 1/1A [2, 7] was 19.5 and the 1/1F [2, 7] was 47.0. For the same molecule, the TTN [2, 7] was 3100 ± 60, the 1/1A [2, 8] was 20.0 and the 1/1F [2, 8] was 55.0. It also gave a TTN [2, 8] of 4290 ± 50, a 1/1A ([2]; NaN3 (20 μL, 1M)) of 14.0 and a 1/1F ([2]; NaN3 (20 μL, 1M)) of 52.0. The TTN ([2]; NaN3 (20 μL, 1M)) was 1550 ± 40, the 1/1A ([2]; OD600 = 10) was 16.4 and the 1/1F ([2]; OD600 = 10) was 48.0. For the same molecule, the TTN ([2]; OD600 = 10) was 1940 ± 20, the 1/1A ([2]; initial conditions) was 15.5 and the 1/1F ([2]; initial conditions) was 54.0. For the same molecule, the TTN ([2]; initial conditions) was 1340 ± 40, the “improvement in catalytic efficiency (kcat/KM) compared to the wild-type enzyme” value [3] was “around 2 fold” and the “activity and enantioselectivity” value [4] was “higher activity but lower enantioselectivity than Sav HppD Az2”.

B2: HppD Az2: septuple mutant Sav HppD V189A N191A S230L P243G N245F Q255P L367I, SEQ ID NO: 3 (protein)
chain: B1 chain with N191A, A216F, S230L, A243G, Q245F, A255P
With B2 the “1N/1A (ratio of 1N to 1A among products)” value [1] was 19.3, the “1N/1F (ratio of 1N to 1F among products)” value [1] was 30.6 and the “TTN (total turnover)” value [1] was 490 ± 20. For the same molecule, the “TTN (total turnover)” value ([1]; listed as Sav HppD Az2) was 490, the 1/1A [2, 9] was 19.3 and the 1/1F [2, 9] was 30.6. It also gave a TTN [2, 9] of 490 ± 20, a 1/1A [2, 8] of 7.0 and a 1/1F [2, 8] of 18.0. It also gave a TTN [2, 8] of 260 ± 30, a 1/1A [2, 10] of 21.0 and a 1/1F [2, 10] of 34.0. The TTN [2, 10] was 1820 ± 50 and the “improvement in catalytic efficiency (kcat/KM) compared to the wild-type enzyme” value [3] was “around 2 fold”.

B3: Sav HppD: (4-hydroxyphenyl)pyruvate dioxygenase from Streptomyces avermitilis, SEQ ID NO: 1, Uniprot Q53586 (protein, listed as Streptomyces sp.)
chain: B1 chain with A189V, A216F, A243P, Q245N, A255Q, I367L
With B3 the “1A % (yield of 1A)” value ([5]; no azide addition) was 6.5%, the “1F % (yield of 1F)” value ([5]; no azide addition) was 2.2% and the “1A % (yield of 1A)” value [5, 11] was 10.0%. For the same molecule, the “1F % (yield of 1F)” value [5, 11] was 3.7%, the “1N % (yield of 1N)” value ([5]; whole E. coli cells OD600=40, 1NF, NaN3, Fe2+, room temperature, 24 hours) was 33.0 ± 2.0% and the “1N/1A (ratio of 1N to 1A among products)” value [1] was 3.0. The “1N/1F (ratio of 1N to 1F among products)” value [1] was 9.0 and the “TTN (total turnover)” value [1] was 250 ± 10.
